According to paper PMC6345502, “Vancomycin does not affect the enzymatic activities of purified VanSA” (PLoS ONE, 2019):
Values joined by “and” are separate entries in the source; they are usually repeats but may differ in a detail not shown here. Identical values can stand only once.

B2: full-length VanSA (enzyme)
chain: MVIKLKNKKNDYSKLERKLYMYIVAIVVVAIVFVLYIRSMIRGKLGDWILSILENKYDLNHLDAMKLYQYSIRNNIDIFIYVAIVISILILCRVMLSKFAKYFDEINTGIDVLIQNEDKQIELSAEMDVMEQKLNTLKRTLEKREQDAKLAEQRKNDVVMYLAHDIKTPLTSIIGYLSLLDEAPDMPVDQKAKYVHITLDKAYRLEQLIDEFFEITRYNLQTITLTKTHIDLYYMLVQMTDEFYPQLSAHGKQAVIHAPEDLTVSGDPDKLARVFNNILKNAAAYSEDNSIIDITAGLSGDVVSIEFKNTGSIPKDKLAAIFEKFYRLDNARSSDTGGAGLGLAIAKEIIVQHGGQIYAESNDNYTTFRVELPAMPDLVDKRRS
notes: VanS sensor histidine kinase of type-A vancomycin resistance in enterococci, Uniprot Q06240, full length; the construct has 392 amino acids including the C-terminal PG-6xHis tag; Membrane protein; kept in 10 mM LDAO for SEC and storage and in 9 mM C12E8 for the SPR injections; source: E. coli BL21(DE3), purified from the membrane fraction (DDM extraction, IMAC, Sephacryl S-300 in LDAO)

Assays:
[1] = target: T1, cytosolic domain of VanSA (enterococci, UniProt Q06240 98-384); test: SPR; 1D4-tagged VanRA captured on Rho1D4 antibody amine-coupled to a GLC chip (ProteOn XPR36); cytosolic histidine kinase as analyte; 25°C; 50 mM BIS-TRIS pH 6.0, 150 mM NaCl, 10 mM MgCl2, 0.005% Tween 20; one-site model fitted to equilibrium responses; concentrations for dimers; details: both partners purified
T1 construct: two residues at the N-terminus contributed by the vector pETCH; VanS of type-A vancomycin resistance in enterococci, Uniprot Q06240, residues 98-384, beginning at K98 just after the second predicted transmembrane helix; also called cVanSA; Cytosolic VanSA; source: E. coli BL21(DE3), purified (IMAC, HiTrap Q, S-300)
T1 sequence: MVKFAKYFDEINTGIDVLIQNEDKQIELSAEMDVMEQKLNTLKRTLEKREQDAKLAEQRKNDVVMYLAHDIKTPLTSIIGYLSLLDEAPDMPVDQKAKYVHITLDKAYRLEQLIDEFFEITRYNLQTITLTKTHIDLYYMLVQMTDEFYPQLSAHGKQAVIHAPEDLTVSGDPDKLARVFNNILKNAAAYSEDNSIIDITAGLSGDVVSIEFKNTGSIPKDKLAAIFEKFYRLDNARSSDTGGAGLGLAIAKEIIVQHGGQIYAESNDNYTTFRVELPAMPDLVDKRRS

[2] = target: T2, Phospho-cytosolic VanSA (enterococci, UniProt Q06240 98-384, phospho-histidine at the conserved histidine (autophosphorylated; not expected to be fully phosphorylated)); test: as above; details: both partners purified
T2 construct: two residues at the N-terminus contributed by the vector pETCH; VanS of type-A vancomycin resistance in enterococci, Uniprot Q06240, residues 98-384, beginning at K98; also called autophosphorylated cVanSA; phospho-cVanSA
T2 sequence: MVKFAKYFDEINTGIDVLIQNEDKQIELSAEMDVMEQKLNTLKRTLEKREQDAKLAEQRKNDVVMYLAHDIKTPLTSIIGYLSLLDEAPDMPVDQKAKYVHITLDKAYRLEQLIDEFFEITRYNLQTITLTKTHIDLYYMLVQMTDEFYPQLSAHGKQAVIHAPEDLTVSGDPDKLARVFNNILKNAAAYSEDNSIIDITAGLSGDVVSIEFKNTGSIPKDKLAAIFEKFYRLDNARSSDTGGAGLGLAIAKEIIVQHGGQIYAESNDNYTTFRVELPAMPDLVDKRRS

[3] = target: B2; test: SPR; 1D4-tagged VanRA captured on Rho1D4 antibody on a GLC chip; full-length VanSA as analyte in running buffer + 9 mM C12E8; 25°C; 50 mM BIS-TRIS pH 6.0, 150 mM NaCl, 10 mM MgCl2, 0.005% Tween 20; one-site model fitted to equilibrium responses; concentrations for dimers; details: both partners purified
[4] = target: the molecule itself; test: SEC; Sephacryl S-300 in 50 mM Tris pH 7.8, 500 mM NaCl, 5 mM MgCl2, 10 mM LDAO; elution compared with the 80 kDa apotransferrin standard
[5] = target: T1, cytosolic domain of VanSA; test: fluorescence polarisation; fluorescence anisotropy; cVanSA titrated into 40 nM fluorescein-labeled VanRA; 50 mM Tris pH 7.8, 100 mM NaCl, 5 mM MgCl2, 0.05% Tween-20; room temperature; details: both partners purified

B1: 1D4-tagged VanRA (natural protein)
chain: MSDKILIVDDEHEIADLVELYLKNENYTVFKYYTAKEALECIDKSEIDLAILDIMLPGTSGLTICQKIRDKHTYPIIMLTGKDTEVDKITGLTIGADDYITKPFRPLELIARVKAQLRRYKKFSGVKEQNENVIVHSGLVINVNTHECYLNEKQLSLTPTEFSILRILCENKGNVVSSELLFHEIWGDEYFSKSNNTITVHIRHLREKMNDTIDNPKYIKTVWGVGYKIEK
notes: VanR response regulator of type-A vancomycin resistance in enterococci, Uniprot Q06239; the 1D4 tag and linker add 13 residues to the wild-type VanRA construct; Expression and purification of this tagged construct are not described; also called tagged VanRA construct; immobilized VanRA
[1]
  Kd: 6.8 ± 1.4 µM
[2]
  Kd: 2.5 ± 0.8 µM
[3]
  Kd: 1.9 ± 0.7 µM

## B2
[4]
  binding result: binds

B3: fluorescently-labeled VanRA (natural protein, enterococci)
chain: CMSDKILIVDDEHEIADLVELYLKNENYTVFKYYTAKEALECIDKSEIDLAILDIMLPGTSGLTICQKIRDKHTYPIIMLTGKDTEVDKITGLTIGADDYITKPFRPLELIARVKAQLRRYKKFSGVKEQNENVIVHSGLVINVNTHECYLNEKQLSLTPTEFSILRILCENKGNVVSSELLFHEIWGDEYFSKSNNTITVHIRHLREKMNDTIDNPKYIKTVWGVGYKIEK
modifications: fluorescein maleimide on the cysteine introduced at the N-terminus
notes: additional cysteine at the N-terminus, introduced by site-directed mutagenesis instead of the glycine of the wild-type construct; VanR response regulator of type-A vancomycin resistance in enterococci, Uniprot Q06239; Expression and purification of the cysteine mutant are not described; After labelling it was passed over Sephacryl S-100 HR; also called fluorescein-labeled VanRA; …
[5]
  Kd: 0.2 µM and 0.1 to 1 µM
